Laboratory results published in patent US20150315607A1 (ACADEMIA SINICA, published 2015).

T1: CYN1-EAT1 (Oryza sativa (rice), UniProt Q7X8R0 1-464)
T1 construct: BiFC construct expressed in rice protoplasts
T1 sequence: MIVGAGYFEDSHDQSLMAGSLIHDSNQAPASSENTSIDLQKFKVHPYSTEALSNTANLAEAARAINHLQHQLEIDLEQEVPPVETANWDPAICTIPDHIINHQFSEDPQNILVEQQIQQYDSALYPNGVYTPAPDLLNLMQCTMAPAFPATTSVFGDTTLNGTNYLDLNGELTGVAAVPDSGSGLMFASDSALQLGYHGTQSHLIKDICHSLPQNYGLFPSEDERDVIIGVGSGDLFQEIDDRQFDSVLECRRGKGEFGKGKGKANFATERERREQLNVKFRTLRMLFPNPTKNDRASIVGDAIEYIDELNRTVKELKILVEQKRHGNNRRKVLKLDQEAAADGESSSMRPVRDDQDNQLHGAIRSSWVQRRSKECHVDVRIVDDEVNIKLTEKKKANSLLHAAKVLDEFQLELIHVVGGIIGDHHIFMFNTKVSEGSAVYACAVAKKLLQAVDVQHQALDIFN

B1: transcription factor bHLH142 (other)
chain: MYHPQCELLMPLESLEMDVGQSHLAAAVAAAMPGELNFHLLHSLDAAAAAASSTAASASSQPTVDYFFGGADQQPPPPAAMQYDQLAAPHHHQTVAMLRDYYGGHYPPAAAAAAATEAYFRGGPRTAGSSSLVFGPADDESAFMVGPFESSPTPRSGGGRKRSRATAGFHGGGPANGVEKKEKQRRLRLTEKYNALMLLIPNRTKEDRATVISDAIEYIQELGRTVEELTLLVEKKRRRREMQGDVVDAATSSVVAGMDQAAESSEGEVMAAAAMGAVAPPPRQAPIRSTYIQRRSKETFVDVRIVEDDVNIKLTKRRRDGCLAAASRALDDLRLDLVHLSGGKIGDCHIYMFNTKIHSGSPVFASAVASRLIEVVDEY
notes: Rice bHLH transcription factor as named in general statements and as 35S-driven effector in the EAT1pro-Luc protoplast assay; also called Os01g0293100
B2: NYN1-bHLH142 (other, not shown: large carriers)
chain: B1 chain
notes: BiFC construct expressed in rice protoplasts
B3: ETERNAL TAPETUM 1 (EAT1) (other)
chain: T1 sequence

Legend:
[1] = target: B3; assay: yeast two-hybrid and BiFC (FIG. 13)
[2] = target: TAPETUM …ON …ON (TDR1) (Oryza sativa (rice), UniProt Q6YUS3 1-552); assay: cell-based or functional assay
[3] = target: T1, CYN1-EAT1; assay: BiFC in rice protoplasts
Method: Next, the tested genes were introduced into pSAT5-DEST_CYN1 and pSAT4(A)-DEST_NYN1. Ballistic bombardment-mediated transient transformation in rice protoplasts was carried out following a previously published protocol³⁶. Florescence images were photographed on a LSM 780 Plus ELYRA S.1 confocal microscope with Plan-Apochromat 40×/1.4 oil objective lens (Zeiss, Germany).

Binder: B1
binding result [1]: no binding | Luc expression from the EAT1 promoter (EAT1pro-Luc), transient assay in rice protoplasts [2]: ≤ 30 fold

Binder: B2
binding result [3]: no binding

Binder: B3
Luc expression from the EAT1 promoter (EAT1pro-Luc) with bHLH142, TDR1 and additional EAT1, transient assay in rice protoplasts [2]: 18 fold
